Measured values reported in IntAct's records for PubMed 18060821.

B1: MAPK phosphothreonine lyase (Salmonella enteritidis), P0A2N1 (parent)
chain: MPINRPNLNLNIPPLNIVAAYDGAEIPSTNKHLKNNFNSLHNQMRKMPVSHFKEALDVPDYSGMRQSGFFAMSQGFQLNNHGYDVFIHARRESPQSQGKFAGDKFHISVLRDMVPQAFQALSGLLFSEDSPVDKWKVTDMEKVVQQARVSLGAQFTLYIKPDQENSQYSASFLHKTRQFIECLESRLSENGVISGQCPESDVHPENWKYLSYRNELRSGRDGGEMQRQALREEPFYRLMTE

Variants of: B1
Conditions: with mk07_human MAPK7, Q13164
Chain of mk07_human MAPK7, Q13164 (Q13164 whole entry, looked up): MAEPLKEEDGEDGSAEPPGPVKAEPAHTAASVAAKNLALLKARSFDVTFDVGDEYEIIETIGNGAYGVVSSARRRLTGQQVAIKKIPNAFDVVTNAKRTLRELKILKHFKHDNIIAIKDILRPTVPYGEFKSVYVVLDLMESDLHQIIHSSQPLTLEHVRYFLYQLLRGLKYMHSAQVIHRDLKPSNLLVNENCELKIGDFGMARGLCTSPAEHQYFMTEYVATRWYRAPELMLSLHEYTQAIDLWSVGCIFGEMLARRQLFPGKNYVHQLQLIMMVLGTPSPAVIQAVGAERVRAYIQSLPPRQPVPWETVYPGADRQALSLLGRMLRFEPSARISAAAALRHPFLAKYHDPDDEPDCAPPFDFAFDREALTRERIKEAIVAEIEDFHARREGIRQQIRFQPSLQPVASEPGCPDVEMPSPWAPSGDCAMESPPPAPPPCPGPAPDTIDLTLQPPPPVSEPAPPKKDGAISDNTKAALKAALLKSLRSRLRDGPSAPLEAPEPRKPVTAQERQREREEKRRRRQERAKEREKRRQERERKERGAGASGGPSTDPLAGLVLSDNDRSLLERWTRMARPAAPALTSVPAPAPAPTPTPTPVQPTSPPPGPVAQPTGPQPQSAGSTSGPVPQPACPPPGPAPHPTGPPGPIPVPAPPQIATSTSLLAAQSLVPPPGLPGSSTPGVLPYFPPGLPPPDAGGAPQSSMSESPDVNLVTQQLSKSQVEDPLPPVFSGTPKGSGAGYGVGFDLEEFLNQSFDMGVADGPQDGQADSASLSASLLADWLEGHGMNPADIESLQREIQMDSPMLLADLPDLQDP

| Variant | effect of a mutation on the interaction |
| --- | --- |
| K136A | with no effect |

Variants of: B1
Conditions: with mk07_human MAPK7, Q13164
Remark: another data set of the same source

| Variant | effect of a mutation on the interaction |
| --- | --- |
| K136A | causing an interaction |
| H106A;K136A | disrupting interaction |
